In the MegaScale stability set (Tsuboyama et al. 2023):

B1: 5KPH (parent)
chain: EEKRQVKQVAKEKLLEQSPNSKVQVRRVQKQGNTIRVELELRTNGKKENYTVEVERQGNTWTVKRITRT

Variants of: B1
Assay: folding stability dG (cDNA display proteolysis); higher = more stable
Conditions: PBS, room temperature

Folding stability dG [kJ/mol], by site and new letter:
V23: T 10.5; S 8.43; C 13.3; G 6.64; D 5.13; F 10.9; L 12.8; R 5.96; N 5.29; P 11.2; K 5.72; Y 8.11; M 12.9; E 5.02; I 16.3; H 6.58; W 11.2; A 15; Q 7.49
R26: C 15.3; E 10.8; T 16.4; F 15.5; I 17.8; P 6.31; S 14; M 17.2; K 16.8; D 9.05; W 14.6; G 13.9; Q 14.6; N 14.7; L 19.3; H 14.9; V 17.4; Y 14.8; A 12.9
S18: V 16.5; C 16.2; L 16.8; A 15.9; T 14; E 14.9; M 17; Q 16; H 19.5; R 16; P 8.31; K 16; W 18.4; F 19.6; G 10.7; D 13.5; N 18.7; Y 19.8; I 16.5
T34: A 15.1
Q31: H 18; R 16.9; T 17.3; K 16; S 16.8; M 18.7; F 17.6; D 16.3; W 18.4; V 17.8; L 17.9; A 15.7; Y 18.2; N 16.1; C 16.4; I 18.5; P 7.83; G 13.1; E 17
K22: W 17; T 17.4; M 16.1; D 15.9; Q 16.9; Y 17; I 16.8; C 15.3; A 15.5; P 9.93; R 16.1; S 16; V 16.8; H 16.3; N 15.2; L 16.7; E 17.3; G 13.4; F 17.4
P19: D 9.67; F 10.6; S 11.6; I 11.8; Y 8.9; L 11.1; E 10.5; A 11.8; V 11.8; M 11.3; N 10.7; T 11.3; W 8.98; Q 11.9; K 12.7; G 11.3; R 11.6; C 12.7; H 12.2
Q24: R 18.5; Y 18.8; K 18.1; C 16; L 18.3; I 18; V 17.8; T 17.7; H 17.9; E 15.3; A 16.6; G 12.9; N 15.8; W 18.4; S 17.3; F 18.7; P 5.23; D 14.8; M 18.5
R27: K 15.1; S 15.9; C 14.4; F 16.1; I 13.5; L 14.8; P 5.78; G 15.2; W 17.3; N 14.9; E 11.5; H 15.5; M 14.4; D 12.9; Q 13.8; V 13; A 15.1; Y 15.6; T 14.1
S21: N 9.94; D 9.32; R 9.1; L 10.8; H 10.9; M 11.5; F 11.1; A 16.6; T 11.8; K 9.03; W 12.1; Q 9.64; G 16.8; Y 11.2; C 13.1; V 13.3; E 8.21; I 10.3; P 9.91
N20: F 14; M 15; R 14.6; E 14.8; Q 15.1; P 9.61; K 14.9; W 9.95; L 15.1; G 17.6; I 12.7; V 11.6; H 15.2; Y 13.9; A 15.8; T 15.1; C 14.8; S 15.9; D 15.3
Q17: I 18.4; D 14.5; A 15.4; H 16.9; M 18.9; P 7.61; F 17.2; G 15.2; R 16.4; S 15; L 19; E 13.8; N 15.4; K 15.8; T 16; W 15.1; V 16.4; Y 16.7; C 15.7
Q29: Y 18.9; K 15.7; R 17.4; P 4.27; H 17.5; M 18; G 14.3; C 16.3; L 17.8; T 18.1; E 16.6; S 17.7; A 16.1; N 16; W 19.1; D 15.7; V 17.1; I 17.8; F 18.6
V28: Y 18.2; D 6.02; K 7.26; H 9.03; W 16.1; S 10.4; N 6.47; P 5.62; M 17.2; E 7.3; L 16.9; R 6.51; G 7.84; F 16.4; T 13.6; Q 10.6; A 13.2; I 16.7; C 14.2
K30: T 17.3; W 19.4; C 15.5; R 16.7; Y 19.7; S 18.1; H 16.9; P 15.9; M 17.9; I 18.2; E 15.8; N 15.7; Q 17.8; D 15.9; L 16.9; F 19.3; A 17.7; G 17.1; V 18.1
N33: F 15.3; E 15.4; C 13.5; I 14.1; P 14.8; K 15.7; V 14.2; H 14.8; R 15.7; T 16; A 15.9; S 16.2; M 15.7; G 15; D 16.3; Q 15.5; W 14; L 15; Y 14.6
E16: P 8.99; W 12; M 14.1; Y 10.9; T 14; S 14.9; N 13.4; R 12.9; V 12; Q 15.8
V25: N 7.21; I 15.7; L 12.2; T 11.9; Q 6.98; S 7.69; P 9.21; A 12.4; H 9.15; W 11.3; D 4.9; F 15.8; M 11; E 7.29; Y 11.7; K 5.44; R 7.15; C 12.9; G 6.87
G32: A 13.3; T 10.9; Y 13.1; D 13.8; F 13.9; L 12.9; R 12.7; K 13; V 11.5; W 13.4; M 12.5; P 10.3; E 13; Q 12.7; S 12.4; I 11.2; C 12.8; H 13.2; N 13.6
